# PMC3282623, “High-pressure-induced water penetration into 3-isopropylmalate dehydrogenase” (Acta Crystallographica Section D: Biological Crystallography, 2012)
# Molecular target: the molecule itself
# Experiment: crystal structure; crystals of the SoIPMDH-IPM complex, space group C2, room temperature, in a glass capillary (0.1 MPa) or a diamond anvil cell (160, 340, 410, 580 and 650 MPa); 18% PEG 3350, 100 mM Na HEPES pH 7.0, 200 mM calcium acetate, 10 mM magnesium chloride, 10 mM IPM
protein,measurement,value
"3-isopropylmalate dehydrogenase (IPMDH) from Shewanella oneidensis MR-1 (enzyme, 3-isopropylmalate dehydrogenase, product of the leuB gene of Shewanella oneidensis MR-1, subcloned into the BamHI/HindIII sites of pQE-80L (vector pQE-MR1-leuB); Crystallised in complex with its substrate 3-isopropylmalate (IPM) and a divalent cation; the two subunits of the dimer are related by the crystallographic twofold axis; also called SoIPMDH) SYQIAVLAGDGIGPEVMAEARKVLKAVEARFGLNIEYTEYDVGGIAIDNHGCPLPEATLKGCEAADAILFGSVGGPKWEKLPPNEQPERGALLPLRGHFELFCNLRPAKLHDGLEHMSPLRSDISARGFDVLCVRELTGGIYFGKPKGRQGEGESEEAFDTMRYSRREISRIARIAFEAARGRRKKVTSVDKANVLACSVLWRQVVEEVAVDFPDVELEHIYIDNATMQLLRRPDEFDVMLCSNLFGDILSDEIAMLTGSMGLLSSASMNSTGFGLFEPAGGSAPDIAGKGIANPIAQILSAALMLRHSLKQEEAASAIERAVTKALNSGYLTGELLSSDQRHKAKTTVQMGDFIADAVKAGV",stoichiometry N,2
